Where a chain is given by its changes, count along the chain named.
B1: 0324-LN3_T65H (antibody, V domains shown)
VH: QVQLQQWGPGLVNPSETLSLTCSVSGGSFATENYYWSWIRQHPGEGLEWIGNIYFSGNHYYNPSLNNRFTISFDTSKNHLSLKLPSVTAADTAVYYCARGTIYFDLSGYRRVDPFHIWGQGTMVIVSS
VL: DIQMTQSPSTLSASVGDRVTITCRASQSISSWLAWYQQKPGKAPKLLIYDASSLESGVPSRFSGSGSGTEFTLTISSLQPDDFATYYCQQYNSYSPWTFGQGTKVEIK
notes: source: Expi293F, transfected
B2: 0393-YN3_T65W (antibody, V domains shown)
VH: B1 VH with H59W, L106Y
VL: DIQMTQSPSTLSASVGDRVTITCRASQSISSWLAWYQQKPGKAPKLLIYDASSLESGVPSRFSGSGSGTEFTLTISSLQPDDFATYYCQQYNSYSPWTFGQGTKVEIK
notes: source: Expi293F, transfected
B3: 0311-IN3_T65P (antibody, V domains shown)
VH: B1 VH with H59P, L106I
VL: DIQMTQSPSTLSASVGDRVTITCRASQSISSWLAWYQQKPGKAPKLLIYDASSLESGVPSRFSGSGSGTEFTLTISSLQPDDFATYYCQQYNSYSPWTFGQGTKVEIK
notes: source: Expi293F, transfected
B4: 0316-IN3_T65V (antibody, V domains shown)
VH: B1 VH with H59V, L106I
VL: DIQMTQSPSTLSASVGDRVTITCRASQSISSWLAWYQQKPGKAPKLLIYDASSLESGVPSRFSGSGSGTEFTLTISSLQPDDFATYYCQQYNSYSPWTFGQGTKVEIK
notes: source: Expi293F, transfected
B5: 0328-LN3_T65M (antibody, V domains shown)
VH: B1 VH with H59M
VL: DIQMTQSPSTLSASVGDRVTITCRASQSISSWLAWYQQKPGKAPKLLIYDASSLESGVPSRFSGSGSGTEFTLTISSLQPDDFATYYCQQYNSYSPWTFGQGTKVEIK
notes: source: Expi293F, transfected
B6: 0366-N3_T65M (antibody, V domains shown)
VH: B1 VH with H59M, L106R
VL: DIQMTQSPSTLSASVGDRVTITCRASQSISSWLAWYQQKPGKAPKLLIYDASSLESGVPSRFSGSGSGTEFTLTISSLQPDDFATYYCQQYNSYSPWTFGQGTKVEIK
notes: source: Expi293F, transfected
B7: 0389-YN3_T65R (antibody, V domains shown)
VH: B1 VH with H59R, L106Y
VL: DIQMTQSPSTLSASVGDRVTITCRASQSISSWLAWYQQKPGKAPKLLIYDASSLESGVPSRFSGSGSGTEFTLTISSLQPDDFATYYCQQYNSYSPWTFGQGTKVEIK
notes: source: Expi293F, transfected
B8: 0368-N3_T65P (antibody, V domains shown)
VH: B1 VH with H59P, L106R
VL: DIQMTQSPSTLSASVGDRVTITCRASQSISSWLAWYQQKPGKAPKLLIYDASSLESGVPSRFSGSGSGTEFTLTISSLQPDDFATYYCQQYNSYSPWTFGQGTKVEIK
notes: source: Expi293F, transfected
B9: 0382-YN3_T65I (antibody, V domains shown)
VH: B1 VH with H59I, L106Y
VL: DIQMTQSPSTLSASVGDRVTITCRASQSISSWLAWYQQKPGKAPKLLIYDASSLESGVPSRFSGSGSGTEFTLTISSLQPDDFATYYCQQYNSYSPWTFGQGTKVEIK
notes: source: Expi293F, transfected
B10: 0361-N3_T65G (antibody, V domains shown)
VH: B1 VH with H59G, L106R
VL: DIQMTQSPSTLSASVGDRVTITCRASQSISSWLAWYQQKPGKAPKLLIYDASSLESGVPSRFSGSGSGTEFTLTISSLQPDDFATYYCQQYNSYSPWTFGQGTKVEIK
notes: source: Expi293F, transfected
B11: 0385-YN3_T65M (antibody, V domains shown)
VH: B1 VH with H59M, L106Y
VL: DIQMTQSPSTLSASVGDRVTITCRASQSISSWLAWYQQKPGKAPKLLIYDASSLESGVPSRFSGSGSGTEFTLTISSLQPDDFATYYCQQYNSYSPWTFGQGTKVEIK
notes: source: Expi293F, transfected
B12: 0390-YN3_T65S (antibody, V domains shown)
VH: B1 VH with H59S, L106Y
VL: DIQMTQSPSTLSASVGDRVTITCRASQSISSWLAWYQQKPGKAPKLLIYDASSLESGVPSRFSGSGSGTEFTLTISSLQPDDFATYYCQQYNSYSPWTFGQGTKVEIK
notes: source: Expi293F, transfected
B13: 0365-N3_T65L (antibody, V domains shown)
VH: B1 VH with H59L, L106R
VL: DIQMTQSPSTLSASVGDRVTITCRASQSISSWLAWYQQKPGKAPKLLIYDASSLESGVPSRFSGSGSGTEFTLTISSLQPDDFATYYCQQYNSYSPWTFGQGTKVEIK
notes: source: Expi293F, transfected
B14: 0343-MN3_T65H (antibody, V domains shown)
VH: B1 VH with L106M
VL: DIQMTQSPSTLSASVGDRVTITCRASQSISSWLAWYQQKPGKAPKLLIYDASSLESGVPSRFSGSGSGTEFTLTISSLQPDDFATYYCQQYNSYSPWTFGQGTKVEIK
notes: source: Expi293F, transfected
B15: 0304-IN3_T65G (antibody, V domains shown)
VH: B1 VH with H59G, L106I
VL: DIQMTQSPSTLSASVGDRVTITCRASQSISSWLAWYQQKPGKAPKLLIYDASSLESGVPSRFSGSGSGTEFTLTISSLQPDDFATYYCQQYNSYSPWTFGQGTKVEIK
notes: source: Expi293F, transfected
B16: 0357-N3_T65A (antibody, V domains shown)
VH: B1 VH with H59A, L106R
VL: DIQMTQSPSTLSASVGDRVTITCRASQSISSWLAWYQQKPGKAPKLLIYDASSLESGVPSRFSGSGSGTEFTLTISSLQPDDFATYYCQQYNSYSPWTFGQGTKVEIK
notes: source: Expi293F, transfected
B17: 0306-IN3_T65I (antibody, V domains shown)
VH: B1 VH with H59I, L106I
VL: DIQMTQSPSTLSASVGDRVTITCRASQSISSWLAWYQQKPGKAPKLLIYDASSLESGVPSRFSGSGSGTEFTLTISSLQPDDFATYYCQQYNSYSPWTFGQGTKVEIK
notes: source: Expi293F, transfected
B18: 0322-LN3_T65F (antibody, V domains shown)
VH: B1 VH with H59F
VL: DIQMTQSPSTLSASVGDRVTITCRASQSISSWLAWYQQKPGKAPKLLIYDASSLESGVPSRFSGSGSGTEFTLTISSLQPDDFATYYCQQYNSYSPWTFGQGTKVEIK
notes: source: Expi293F, transfected
B19: 0303-IN3_T65F (antibody, V domains shown)
VH: B1 VH with H59F, L106I
VL: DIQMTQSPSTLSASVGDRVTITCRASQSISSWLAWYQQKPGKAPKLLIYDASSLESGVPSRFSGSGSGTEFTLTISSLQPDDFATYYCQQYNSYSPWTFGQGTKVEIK
notes: source: Expi293F, transfected
B20: 0375-N3_T65Y (antibody, V domains shown)
VH: B1 VH with H59Y, L106R
VL: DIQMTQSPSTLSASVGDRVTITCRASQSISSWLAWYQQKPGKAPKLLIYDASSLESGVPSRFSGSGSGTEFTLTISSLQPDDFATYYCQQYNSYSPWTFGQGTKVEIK
notes: source: Expi293F, transfected
B21: 0321-LN3_T65E (antibody, V domains shown)
VH: B1 VH with H59E
VL: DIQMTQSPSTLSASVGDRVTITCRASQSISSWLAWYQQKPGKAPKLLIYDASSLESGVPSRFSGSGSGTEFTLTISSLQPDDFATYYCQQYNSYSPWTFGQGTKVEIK
notes: source: Expi293F, transfected
B22: 0339-MN3_T65D (antibody, V domains shown)
VH: B1 VH with H59D, L106M
VL: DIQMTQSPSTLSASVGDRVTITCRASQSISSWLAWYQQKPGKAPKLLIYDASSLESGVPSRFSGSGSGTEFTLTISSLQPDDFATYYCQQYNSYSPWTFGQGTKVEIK
notes: source: Expi293F, transfected
B23: 0325-LN3_T65I (antibody, V domains shown)
VH: B1 VH with H59I
VL: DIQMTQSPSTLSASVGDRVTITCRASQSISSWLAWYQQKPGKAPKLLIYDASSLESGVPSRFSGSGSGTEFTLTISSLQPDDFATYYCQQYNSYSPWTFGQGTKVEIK
notes: source: Expi293F, transfected
B24: 0333-LN3_T65S (antibody, V domains shown)
VH: B1 VH with H59S
VL: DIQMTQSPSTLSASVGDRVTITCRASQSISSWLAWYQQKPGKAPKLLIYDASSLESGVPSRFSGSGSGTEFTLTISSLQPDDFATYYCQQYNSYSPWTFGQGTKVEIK
notes: source: Expi293F, transfected
B25: 0313-IN3_T65R (antibody, V domains shown)
VH: B1 VH with H59R, L106I
VL: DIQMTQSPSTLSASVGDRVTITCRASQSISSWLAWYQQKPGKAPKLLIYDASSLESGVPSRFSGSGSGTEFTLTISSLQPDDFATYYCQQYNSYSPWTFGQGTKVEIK
notes: source: Expi293F, transfected
B26: 0364-N3_T65K (antibody, V domains shown)
VH: B1 VH with H59K, L106R
VL: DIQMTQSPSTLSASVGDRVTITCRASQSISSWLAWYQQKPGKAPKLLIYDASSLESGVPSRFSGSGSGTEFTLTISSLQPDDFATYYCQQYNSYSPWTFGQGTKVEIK
notes: source: Expi293F, transfected
B27: 0308-IN3_T65L (antibody, V domains shown)
VH: B1 VH with H59L, L106I
VL: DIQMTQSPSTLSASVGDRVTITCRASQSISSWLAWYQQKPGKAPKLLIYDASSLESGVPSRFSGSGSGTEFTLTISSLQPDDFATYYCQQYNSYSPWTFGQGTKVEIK
notes: source: Expi293F, transfected
B28: 0336-LN3_T65W (antibody, V domains shown)
VH: B1 VH with H59W
VL: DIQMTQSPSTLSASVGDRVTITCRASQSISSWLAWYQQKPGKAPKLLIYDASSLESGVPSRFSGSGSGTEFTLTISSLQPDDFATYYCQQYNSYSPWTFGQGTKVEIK
notes: source: Expi293F, transfected
B29: 0320-LN3_T65D (antibody, V domains shown)
VH: B1 VH with H59D
VL: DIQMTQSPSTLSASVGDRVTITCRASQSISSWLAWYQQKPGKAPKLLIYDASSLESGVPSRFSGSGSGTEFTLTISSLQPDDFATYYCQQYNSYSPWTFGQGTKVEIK
notes: source: Expi293F, transfected
B30: 0300-IN3_T65A (antibody, V domains shown)
VH: B1 VH with H59A, L106I
VL: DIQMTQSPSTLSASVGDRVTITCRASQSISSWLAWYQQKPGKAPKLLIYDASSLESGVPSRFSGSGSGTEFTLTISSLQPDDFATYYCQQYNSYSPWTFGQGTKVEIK
notes: source: Expi293F, transfected
B31: 0301-IN3_T65D (antibody, V domains shown)
VH: B1 VH with H59D, L106I
VL: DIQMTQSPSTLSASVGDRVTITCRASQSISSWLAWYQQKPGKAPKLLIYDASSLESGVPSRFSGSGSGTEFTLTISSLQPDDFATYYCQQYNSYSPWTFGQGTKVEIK
notes: source: Expi293F, transfected
B32: 0305-IN3_T65H (antibody, V domains shown)
VH: B1 VH with L106I
VL: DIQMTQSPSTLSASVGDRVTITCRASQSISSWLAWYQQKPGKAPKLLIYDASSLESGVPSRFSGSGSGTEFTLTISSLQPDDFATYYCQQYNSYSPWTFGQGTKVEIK
notes: source: Expi293F, transfected
B33: 0302-IN3_T65E (antibody, V domains shown)
VH: B1 VH with H59E, L106I
VL: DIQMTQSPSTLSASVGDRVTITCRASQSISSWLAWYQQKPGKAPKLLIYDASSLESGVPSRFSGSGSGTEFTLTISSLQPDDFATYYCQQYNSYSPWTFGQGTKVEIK
notes: source: Expi293F, transfected
B34: 0342-MN3_T65G (antibody, V domains shown)
VH: B1 VH with H59G, L106M
VL: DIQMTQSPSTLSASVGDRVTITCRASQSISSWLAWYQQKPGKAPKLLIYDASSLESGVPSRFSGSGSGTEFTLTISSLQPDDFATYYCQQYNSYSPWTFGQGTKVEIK
notes: source: Expi293F, transfected
B35: 0384-YN3_T65L (antibody, V domains shown)
VH: B1 VH with H59L, L106Y
VL: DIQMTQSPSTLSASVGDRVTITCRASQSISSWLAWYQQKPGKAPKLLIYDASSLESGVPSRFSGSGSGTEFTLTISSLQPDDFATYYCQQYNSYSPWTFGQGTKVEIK
notes: source: Expi293F, transfected
B36: 0355-MN3_T65W (antibody, V domains shown)
VH: B1 VH with H59W, L106M
VL: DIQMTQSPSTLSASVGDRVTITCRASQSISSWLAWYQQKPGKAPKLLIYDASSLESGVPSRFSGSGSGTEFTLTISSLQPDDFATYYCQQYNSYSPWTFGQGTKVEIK
notes: source: Expi293F, transfected
B37: 0369-N3_T65Q (antibody, V domains shown)
VH: B1 VH with H59Q, L106R
VL: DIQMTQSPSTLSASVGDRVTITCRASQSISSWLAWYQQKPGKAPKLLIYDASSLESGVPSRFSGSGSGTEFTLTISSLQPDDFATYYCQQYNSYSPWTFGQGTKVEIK
notes: source: Expi293F, transfected
B38: 0323-LN3_T65G (antibody, V domains shown)
VH: B1 VH with H59G
VL: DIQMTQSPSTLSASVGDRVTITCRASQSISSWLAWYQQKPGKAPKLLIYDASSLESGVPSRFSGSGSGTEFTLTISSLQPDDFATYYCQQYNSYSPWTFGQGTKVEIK
notes: source: Expi293F, transfected
B39: 0376-YN3_T65A (antibody, V domains shown)
VH: B1 VH with H59A, L106Y
VL: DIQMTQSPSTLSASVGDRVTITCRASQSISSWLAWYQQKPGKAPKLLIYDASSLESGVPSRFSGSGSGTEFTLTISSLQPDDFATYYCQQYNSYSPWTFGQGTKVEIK
notes: source: Expi293F, transfected
B40: 0332-LN3_T65R (antibody, V domains shown)
VH: B1 VH with H59R
VL: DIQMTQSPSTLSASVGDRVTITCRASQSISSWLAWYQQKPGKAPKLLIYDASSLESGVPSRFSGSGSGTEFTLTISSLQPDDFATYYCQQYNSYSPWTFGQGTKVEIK
notes: source: Expi293F, transfected
B41: 0310-IN3_T65N (antibody, V domains shown)
VH: B1 VH with H59N, L106I
VL: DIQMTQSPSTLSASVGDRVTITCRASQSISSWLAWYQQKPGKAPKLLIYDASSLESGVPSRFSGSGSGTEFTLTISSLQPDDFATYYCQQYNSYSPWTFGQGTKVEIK
notes: source: Expi293F, transfected
B42: 0387-YN3_T65P (antibody, V domains shown)
VH: B1 VH with H59P, L106Y
VL: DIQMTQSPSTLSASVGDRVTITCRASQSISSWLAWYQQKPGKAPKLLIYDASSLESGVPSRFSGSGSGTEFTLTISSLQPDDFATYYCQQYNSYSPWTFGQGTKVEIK
notes: source: Expi293F, transfected
B43: 0314-IN3_T65S (antibody, V domains shown)
VH: B1 VH with H59S, L106I
VL: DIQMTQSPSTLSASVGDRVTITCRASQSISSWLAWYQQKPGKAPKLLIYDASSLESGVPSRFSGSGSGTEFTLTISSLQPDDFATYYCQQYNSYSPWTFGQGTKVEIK
notes: source: Expi293F, transfected

What follows are binders tested against D614G-Hexapro (WT) spike ectodomain (SARS-CoV-2 Wuhan-Hu-1 D614G, D614G) (assay: BLI).

Row | Binder | Kd [nM] | koff [s⁻¹] | kon [M⁻¹ s⁻¹]
1 | B1 | 0.276 | 0.000291 | 1.06e+06
2 | B2 | 189 | 0.000535 | 2840
3 | B3 | 200 | 0.000578 | 2890
4 | B4 | 89.3 | 2.62e-05 | 294
5 | B5 | 2.99 | 0.00124 | 415000
6 | B6 | 8.15 | 2.08e-06 | 255
7 | B7 | 839 | 0.00107 | 1280
8 | B8 | 52.9 | 0.000253 | 4790
9 | B9 | 2690 | 0.000811 | 302
10 | B10 | 549 | 0.000177 | 323
11 | B11 | 9.93 | 0.00157 | 158000
12 | B12 | 830 | 0.00105 | 1270
13 | B13 | 387 | 0.000123 | 318
14 | B14 | 7760 | 0.000643 | 82.8
15 | B15 | 45.4 | 0.000221 | 4880
16 | B16 | 0.562 | 0.000124 | 221000
17 | B17 | 524 | 0.000136 | 259
18 | B18 | 2.52 | 0.000726 | 288000
19 | B19 | 0.129 | 0.000115 | 887000
20 | B20 | – | – | 265

Row | Binder | Kd [nM] | koff [s⁻¹] | kon [M⁻¹ s⁻¹]
21 | B21 | 378 | 0.00157 | 4150
22 | B22 | 5.95 | 2e-05 | 3350
23 | B23 | 6.57 | 0.00131 | 199000
24 | B24 | 146 | 4.17e-05 | 285
25 | B25 | 0.873 | 0.000516 | 591000
26 | B26 | 288 | 9.92e-05 | 344
27 | B27 | 515 | 0.000134 | 261
28 | B28 | 0.15 | 0.000117 | 782000
29 | B29 | 226 | 0.000716 | 3160
30 | B30 | – | – | 210
31 | B31 | 306 | 6.75e-05 | 221
32 | B32 | 387 | 9.99e-05 | 258
33 | B33 | 776 | 0.000163 | 210
34 | B34 | 69.1 | 0.000217 | 3140
35 | B35 | 4.26 | 0.000957 | 225000
36 | B36 | 0.474 | 0.00041 | 865000
37 | B37 | 65.4 | 0.000113 | 1730
38 | B38 | 145 | 0.000932 | 6420
39 | B39 | 1.82 | 0.000425 | 233000

These binders were tested against Omicron BA.1 spike protein ectodomain (BLI) (SARS-CoV-2 Omicron BA.1, strain) (assay: BLI).

Row | Binder | Kd [nM] | koff [s⁻¹] | kon [M⁻¹ s⁻¹]
40 | B1 | 1.16 | 0.000413 | 356000
41 | B3 | 10.9 | 0.000965 | 88200
42 | B4 | 10.6 | 0.000555 | 52400
43 | B40 | 38.9 | 0.0018 | 46200
44 | B41 | 15.2 | 0.000949 | 62500
45 | B42 | 9.21 | 9.1e-05 | 9880
46 | B43 | 68.7 | 0.00114 | 16600
47 | B17 | 4.36 | 0.000517 | 119000
48 | B19 | 6.04 | 0.000575 | 95200
49 | B24 | 11.7 | 0.000566 | 48500
50 | B25 | 7.36 | 0.000758 | 103000
51 | B27 | 3.92 | 0.000364 | 93000
52 | B30 | 3.61 | 0.000404 | 112000
53 | B31 | 6.38 | 0.000601 | 94200
54 | B32 | 2.89 | 0.000368 | 128000
55 | B33 | 8.27 | 0.000634 | 76700
56 | B34 | 8.08 | 0.000428 | 53000

Source: publication PMC10713552 (Communications Biology, 2023)
